Source: IntAct's records for PubMed 21300286

B1: Tumor necrosis factor receptor superfamily member 6B (Homo sapiens), O95407 (parent)
chain: MRALEGPGLSLLCLVLALPALLPVPAVRGVAETPTYPWRDAETGERLVCAQCPPGTFVQRPCRRDSPTTCGPCPPRHYTQFWNYLERCRYCNVLCGEREEEARACHATHNRACRCRTGFFAHAGFCLEHASCPPGAGVIAPGTPSQNTQCQPCPPGTFSASSSSSEQCQPHRNCTALGLALNVPGSSSHDTLCTSCTGFPLSTRVPGAEECERAVIDFVAFQDISIKRLQRLLQALEAPEGWGPTPRAGRAALQLKLRRRLTELLGAQDGALLVRLLQALRVARMPGLERSVRERFLPVH
B2: Tumor necrosis factor ligand superfamily member 15 (Homo sapiens), O95150-1 (parent)
chain: MAEDLGLSFGETASVEMLPEHGSCRPKARSSSARWALTCCLVLLPFLAGLTTYLLVSQLRAQGEACVQFQALKGQEFAPSHQQVYAPLRADGDKPRAHLTVVRQTPTQHFKNQFPALHWEHELGLAFTKNRMNYTNKFLLIPESGDYFIYSQVTFRGMTSECSEIRQAGRPNKPDSITVVITKVTDSYPEPTQLLMGTKSVCEVGSNWFQPIYLGAMFSLQEGDKLMVNVSDISLVDYTKEDKTFFGAFLL
partner: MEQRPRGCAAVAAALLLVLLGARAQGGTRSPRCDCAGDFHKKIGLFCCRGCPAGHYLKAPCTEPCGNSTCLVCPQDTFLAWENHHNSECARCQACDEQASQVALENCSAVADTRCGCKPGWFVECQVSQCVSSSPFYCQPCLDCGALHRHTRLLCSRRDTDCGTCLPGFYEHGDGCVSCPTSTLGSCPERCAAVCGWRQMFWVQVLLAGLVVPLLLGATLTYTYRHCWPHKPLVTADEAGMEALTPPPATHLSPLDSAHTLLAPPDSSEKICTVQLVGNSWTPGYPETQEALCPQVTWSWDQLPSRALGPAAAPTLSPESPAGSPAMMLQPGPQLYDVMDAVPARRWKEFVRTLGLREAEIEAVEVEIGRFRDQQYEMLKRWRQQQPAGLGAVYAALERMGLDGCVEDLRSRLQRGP
B3: Tumor necrosis factor receptor superfamily member 6B (Homo sapiens), O95407 (parent)
chain: B1 chain
partner: B2 chain

Variants of: B1
Settings: with TNFSF14, O43557-1
TNFSF14, O43557-1, sequence (O43557 whole entry): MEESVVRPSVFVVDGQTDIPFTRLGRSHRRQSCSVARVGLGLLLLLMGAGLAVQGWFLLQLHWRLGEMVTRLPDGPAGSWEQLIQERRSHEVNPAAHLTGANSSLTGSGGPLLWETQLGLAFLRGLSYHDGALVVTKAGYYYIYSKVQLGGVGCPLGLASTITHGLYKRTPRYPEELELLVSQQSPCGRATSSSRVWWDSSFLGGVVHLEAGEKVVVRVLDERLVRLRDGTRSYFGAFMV

| effect of a mutation on the interaction | Variant |
| --- | --- |
| decreasing interaction | L85A;R89A |

Variants of: B1
Settings: with tnfl6_human FASLG

| effect of a mutation on the interaction | Variant |
| --- | --- |
| disrupting interaction | L85A;R89A |

Variants of: B2
Settings: with TNFRSF25, Q93038-1

| effect of a mutation on the interaction | Variant |
| --- | --- |
| disrupting interaction | C162S;S187A;E190A;C202S |

Variants of: B3
Settings: with TNFSF15, O95150-1

| effect of a mutation on the interaction | Variant |
| --- | --- |
| decreasing interaction | L85A;R89A |
